Measured values from patent US10947270B2, “Targeted prodrug cytosine deaminase fusion carrier and application thereof” (National Yang-Ming University, priority 2015, dated 2021).
“And” between values parts separate entries of the source, which are not always exact repeats. Equal values may be shown once. Read-outs that look alike come from different tables or passages of the source.

Assays:
[1] = Enzyme kinetic analysis of yCD series proteins after DTPA modification, marking and purification; assay type: biochemical; settings: for Vmax compared with the original enzyme activity: after EDTA with a 10-fold molar excess of protein
From the text: The enzyme activity of yCD is not affected by DTPA modification.
FIGS. 24A-24B show the kinetic curve of yCD series protein modified, labeled and purified by DTPA. The enzyme activity of the two proteins is not affected by the labeling conditions. After adding EDTA with a 10-fold molar excess of protein, and it is competitively purified, In-DTPA-yCD compared with the original enzyme activity.
The curve and enzyme kinetic parameters (see FIG. 18 and Table 13) are fitted by the […] protein enzyme kinetics through the Michaelis-Menten formula in the Graph prism program.
Before the protein is labeled by radioisotope, its enzyme function must be determined, and based on the original enzyme function, it should be examined whether it will be affected during the radioactive marking process. The curve and enzyme kinetic parameters of protein are fitted by the Michaelis-Menten formula in the Graph prism program. […] Whether the yCD and RGD4C-yCD protein detected by the same method will be affected under the conditions of DTPA modification, marking and purification. […] After the completion of the radioactive metal mark, it is necessary to add EDTA of 10-fold protein Moire number and react at room temperature for 1 hour to compete for the radioactive metal isotope indium which is not chelated on DTPA. The EDTA in this step also has the chance to chelate the metal zinc ion of the enzyme catalytic center, the enzyme activity is impaired, so it is necessary to analyze the enzyme activity of In-DTPA-yCD and In-RGD4C-yCD protein after competition with EDTA. After the EDTA competitive reaction is completed, the enzyme kinetics analysis can be carried out by reducing the EDTA molecule weight through membrane centrifugation method and by replacing the solution with pH 7.0. […] The curve and receptor binding ability parameters of the protein and integrin αvβ3 are fitted under the conditions of DTPA modification, marking and purification by the One site-Specific binding formula in the Graph prism program (see FIG. 25 and Table 18). […] Although the two proteins after marking are greatly affected by the enzyme activity, they still have good binding ability to the integrin αvβ3 receptor. In consideration of the indispensability of EDTA for radiochemical purity, it retains a considerable amount of enzyme activity. In addition, the effect of integrin αvβ3 receptor binding ability is minimal, in combination of cell uptake, biodistribution and angiography experiment, focusing on the evaluation of target results, and the subsequent biological experiment is still carried out by the marking and purification conditions.

[2] = assay type: physicochemical
Protocol: The radiochemical purity of ^111In-DTPA-yCD and ^111In-DTPA-RGD4C-yCD are greater than 95% after marking and purification. Both are stored in HEPES buffer liquid (4° C.) for 48 hours, and the radiochemical purity is still higher than 85% (see FIG. 26). Both are placed in fetal bovine serum (37° C.) to simulate their stability in vivo. After 48 hours, the radiochemical purity of both is about 80%. It is shown that radioactive metal indium-111 is stably chelated on DTPA.

[3] = parameters: species or system nude mice; settings: mouse, in vivo
Protocol: The arrow is marked as a tumor.
In in-vitro cell experiment, the binding ability of ^111In-DTPA-RGD4C-yCD and the integrin αvβ3 receptor on the cell membrane has been verified. In order to know whether the drug can show its target effect in vivo, integrin αvβ3 is seeded subcutaneously in the right side of nude mice. After the high-expression U87MG tumor cells are grown to 100 mm^3, 60-70 μCi (3-3.5 μg) of ^111In-DTPA-yCD and ^111In-DTPA-RGD4C-yCD are injected directly into the tumor, the images are collected by microSPECT/CT after 1, 4, 24, 48 hours. It can be seen from the image (see FIG. 31) that the drug retention in the ^111In-DTPA-RGD4C-yCD group (orange arrow) is better than that in the ^111In-DTPA-yCD, and the target ligand RGD4C is missing. ^111In-DTPA-yCD enters the systemic blood circulation system within 1 hour and is metabolized by normal organs. From FIG. 31, it can be seen that the kidney is the main metabolic organ of these two drugs. […] After 24-48 hours, the amount of accumulation in the tumor is running out. On the contrary, ^111In-DTPA-RGD4C-yCD is bound with integrin αvβ3 on tumor cells, then the ratio of drug entering the systemic blood circulation is reduced, and the metabolic rate is slow.

[4] = parameters: species or system nude mice; settings: mouse, in vivo; remark: listed apart in the source
Protocol: ES-2-luc tumor nude mice is intraperitoneally injected with 50 μCi (2.5 μg) ^111In-DTPA-yCD and ^111In-DTPA-RGD4C-yCD for 1, 4 and 24 hours, then organs are collected and their radioactivity is measured to obtain biodistribution, as shown in Table 19 and Table 20. […] In addition to the part accumulated in the tumor, another part of the drug is absorbed back into the blood circulation system by the peritoneal blood vessels. […] The pancreatic radioactivity of the two drugs is observed after 1 hour of injection. The pancreatic radioactivity of ^111In-DTPA-RGD4C-yCD (8.06±0.88% ID/g) is higher than that of ^111In-DTPA-yCD (3.91±0.36% ID/g), it is suspected that tumor cells invade the pancreas.

[5] = after 10x EDTA competition and purification

Molecule	Km [1]	Vmax [1]	Vmax compared with the original protein ([1]; after DTPA modification)	Vmax ([1]; listed as DTPA- RGD4C-yCD)	Km [1, 5]	Vmax [1, 5]	Vmax compared with the original enzyme activity [1]	radiochemical purity after incubation [2]	time to enter the systemic blood circulation system [3]	radioactivity in the peritoneal cavity reduced to (fraction of 1 hour value) [4]
DTPA-yCD: yCD protein modified by the metal chelating agent DTPA (conjugate) MVVTGGMASKWDQKGMDIAYEEAALGYKEGGVPIGGCLINNKDGSVLGRGHNMRFQKGSATLHGEISTLENCGRLEGKVYKDTTLYTTLSPCDMCTGAIIMYGIPRCVVGENVNFKSKGEKYLQTRGHEVVVVDDERCKKIMKQFIDERPQDWFEDIGELEHHHHHH	0.84 mM and 1.04 mM	286.8 ± 10.80 µM/min								
DTPA-RGD4C-yCD: RGD4C-yCD protein modified by the metal chelating agent DTPA (conjugate) MACDCRGDCFCVTGGMASKWDQKGMDIAYEEAALGYKEGGVPIGGCLINNKDGSVLGRGHNMRFQKGSATLHGEISTLENCGRLEGKVYKDTTLYTTLSPCDMCTGAIIMYGIPRCVVGENVNFKSKGEKYLQTRGHEVVVVDDERCKKIMKQFIDERPQDWFEDIGELEHHHHHH	1.16 ± 0.108 mM	224.6 ± 8.408 µM/min	80%	224.6 ± 8.408 µM/min						
In-DTPA-yCD: DTPA-yCD treated with the stable isotope of indium under simulated marking conditions (conjugate) MVVTGGMASKWDQKGMDIAYEEAALGYKEGGVPIGGCLINNKDGSVLGRGHNMRFQKGSATLHGEISTLENCGRLEGKVYKDTTLYTTLSPCDMCTGAIIMYGIPRCVVGENVNFKSKGEKYLQTRGHEVVVVDDERCKKIMKQFIDERPQDWFEDIGELEHHHHHH	1.12 ± 0.0587 mM	270.0 ± 6.165 µM/min			1.93 ± 0.286 mM	125.2 ± 9.652 µM/min	47%			
In-DTPA-RGD4C-yCD: DTPA-RGD4C-yCD treated with the stable isotope of indium under simulated marking conditions (conjugate) MACDCRGDCFCVTGGMASKWDQKGMDIAYEEAALGYKEGGVPIGGCLINNKDGSVLGRGHNMRFQKGSATLHGEISTLENCGRLEGKVYKDTTLYTTLSPCDMCTGAIIMYGIPRCVVGENVNFKSKGEKYLQTRGHEVVVVDDERCKKIMKQFIDERPQDWFEDIGELEHHHHHH	0.956 ± 0.0768 mM	226.8 ± 6.918 µM/min			1.63 ± 0.273 mM	117.7 ± 9.510 µM/min	40%			
^111In-DTPA-yCD: indium-111 labeled DTPA-yCD protein (conjugate, UniProt Q12178 1-158, looked up, 111In-DTPA label, indium-111 labeled DTPA-yCD protein) Cytosine deaminase: MVTGGMASKWDQKGMDIAYEEAALGYKEGGVPIGGCLINNKDGSVLGRGHNMRFQKGSATLHGEISTLENCGRLEGKVYKDTTLYTTLSPCDMCTGAIIMYGIPRCVVGENVNFKSKGEKYLQTRGHEVVVVDDERCKKIMKQFIDERPQDWFEDIGE								about 80%	≤ 1 h	½
